From PMC8713425 (Journal of medicinal chemistry, 2021)

Target: LGR4 (leucine-rich repeat containing, G protein-coupled receptor 4) (UniProt Q9BXB1 25-951)
Assay: whole-cell binding assay

Row | Kd [nM] | Binder
1 | 3.2 | R4Fu-WT (wild-type RSPO4 furin domain fused to human IgG1 Fc) (Fc fusion) VGTGLGGNCTGCIICSEENGCSTCQQRLFLFIRREGIRQYGKCLHDCPPGYFGIRGQEVNRCKKCGATCESCFSQDFCIRCKRQFYLYKGKCLPTCPPSGGGGSGGGGSGGGGS
2 | 6.2 | R4Fu-Q65R (RSPO4 furin domain Q65R fused to human IgG1 Fc) (Fc fusion) VGTGLGGNCTGCIICSEENGCSTCQQRLFLFIRREGIRRYGKCLHDCPPGYFGIRGQEVNRCKKCGATCESCFSQDFCIRCKRQFYLYKGKCLPTCPPSGGGGSGGGGSGGGGS
